In patent US7541169B2, “Sulfotransferase sequence variants” (Mayo Foundation for Medical Education and Research, priority 2001, dated 2009):
Numbering of substitutions follows the chain as printed.

Test system: SULT1C1
Assay: SULT1C1 enzyme activity assay: sulfate conjugation of 4-nitrophenol with 35S-PAPS, COS-1 cytosol of recombinant allozymes
Format: biochemical, human
Settings: for Km: apparent Km for PAPS, in the presence of 10 mM 4-NP, six PAPS concentrations 0.0625 μM to 2 μM; for % WT activity: recombinant allozyme in COS-1 cytosol, 10 mM 4-NP, 0.4 μM 35S-PAPS, pH 7.4, percentage of wild type SULT1C1 enzyme activity; for activity relative to the reference (wild type) SULT1C1: statement in words
Procedure: In some embodiments, activity of SULT1C1 polypeptides is altered relative to the reference SULT1C1. […] Other allozymes can have increased activity relative to the reference SULT1C1. Activity of SULT1C1 polypeptides can be assessed in vitro using a sulfate acceptor substrate such as 4-nitrophenol (4-NP, Sigma Chemical Co., St. Louis, Mo.) and a donor sulfate molecule such as PAPS. In general, recombinant SULT1C1 polypeptides can be incubated at 37° C. with 10 mM of sulfate acceptor substrate in a potassium phosphate buffer (5 mM, pH 7.4) and 0.4 μM labeled PAPS (e.g., ^35S-PAPS from New England Nuclear Life Science Products, Inc., Boston Mass.). Reactions can be stopped by precipitating PAPS and SULT1C1 polypeptide (e.g., with barium hydroxide, barium acetate, and zinc sulfate). After centrifugation of the reaction, radioactivity in the supernatant is assessed. SULT1C1 activity is expressed as nmoles of sulfate conjugated product formed per hour of incubation. See, Campbell, N. R. C. et al., Biochem. Pharmacol., 36:1435-1446 (1987).
Other biochemical properties of allozymes, such as apparent Km values, also can be altered relative to the reference SULT1C1. Apparent Km values can be calculated, for example, by using the method of Wilkinson with a computer program written by Cleland. Wilkinson, Biochem. J., 80:324-332 (1961); and Cleland, Nature, 198:463-365 (1963). As described herein, the apparent Km values for PAPS vary 7-fold among the allozymes tested (Asp60Ala, Arg73Gln, Phe193Leu, Asp200Val, Thr239Ala, and Ser255Ala).
COS-1 Cell Expression: Nine different SULT1C1 expression constructs were made using the p91023(B) expression vector. See, Wong et al., Science (1985) 228:810-815, for a description of the p91023(B) vector. Eight of the constructs were designed to express variant SULT1C1 polypeptides, while the remaining construct was designed to express a wild type SULT1C1. All SULT1C1 cDNA sequences used to create the expression constructs were created by site directed mutagenesis using the method described by Ho et al., Gene (1989) 77(l):51-9. Each SULT1C1 cDNA was amplified by PCR and subcloned into the EcoRI restriction site of the eukaryotic expression vector p91023(B). After subcloning, all inserts were sequenced to assure that no spurious nucleotide point mutations had been introduced during the PCR amplifications. […] As a control, a transfection was also performed with “empty” p91023(B), i.e., vector lacking an insert, to make it possible to correct for endogenous COS-1 cell SULT activity. The control plasmid pSV-β-galactosidase (Promega, Madison, Wis.) was cotransfected with each SULT1C1 construct to make it possible to correct for transfection efficiency. Two independent transfections, each consisting of three separate plates, were performed with each of the expression constructs. After 48 hours in culture, the transfected cells were harvested and high speed supernatant (HSS) cytosol preparations were prepared as described by Wood, T. C. et al., Biochem. Biophys. Res. Commun., 198:1119-1127 (1994). Aliquots of these cytosol preparations were stored at −80° C. prior to assay.
Enzyme Assays: β-galactosidase activity in each of the COS-1 HSS preparations was measured with the β-galactosidase Enzyme Assay System (Promega, Madison, Wis.). SULT1C1 enzyme activity was measured with an assay that involves sulfate conjugation of a sulfate acceptor substrate, 4-nitrophenol (4-NP), in the presence of [^35S]-3′-phosphoadenosine-5′-phosphosulfate (PAPS), the sulfate donor for the reaction. See, Campbell, N. R. C. et al., Biochem. Pharmacol., 36:1435-1446 (1987). The HSS preparations of recombinant SULT1C1 variant proteins described above were used for the activity studies without any further purification. The protein concentration of each recombinant protein preparation was determined by the dye-binding method of Bradford with bovine serum albumin (BSA) as a standard. […]

B1: Asp60Ala: SULT1C1 polypeptide having an alanine at amino acid residue 60 in place of aspartic acid (protein)
chain: MALTSDLGKQIKLKEVEGTLLQPATVDNWSQIQSFEAKPDDLLICTYPKAGTTWIQEIVAMIEQNGDVEKCQRAIIQHRHPFIEWARPPQPSGVEKAKAMPSPRILKTHLSTQLLPPSFWENNCKFLYVARNAKDCMVSYYHFQRMNHMLPDPGTWEEYFETFINGKVVWGSWFDHVKGWWEMKDRHQILFLFYEDIKRDPKHEIRKVMQFMGKKVDETVLDKIVQETSFEKMKENPMTNRSTVSKSILDQSISSFMRKGTVGDWKNHFTVAQNERFDEIYRRKMEGTSINFCMEL
- Km: 4 ± 0.47 µM
- % WT activity: 13.9 ± 0.3%
- activity relative to the reference (wild type) SULT1C1: reduced activity

B2: Arg73Gln: SULT1C1 polypeptide having a glutamine at amino acid residue 73 in place of an arginine (protein)
chain: B1 chain with A60D, R73Q
- Km: 0.57 ± 0.15 µM
- % WT activity: 14.5 ± 1.9%
- activity relative to the reference (wild type) SULT1C1: reduced activity

B3: wild type: reference human SULT1C1 polypeptide (SEQ ID NO:2, GenBank U66036), recombinantly expressed in COS-1 cells (protein, listed as Homo sapiens)
chain: B1 chain with A60D
- Km: 0.77 ± 0.04 µM
- % WT activity: 100%

B4: Thr239Ala: SULT1C1 polypeptide having an alanine at amino acid 239 in place of a threonine (protein)
chain: B1 chain with A60D, T239A
- Km: 1.14 ± 0.11 µM
- % WT activity: 52.6 ± 1.7%
- activity relative to the reference (wild type) SULT1C1: reduced activity

B5: Asp200Val: SULT1C1 polypeptide having a valine at amino acid 200 in place of an aspartic acid (protein)
chain: B1 chain with A60D, D200V
- Km: 1.2 ± 0.12 µM
- % WT activity: 48.1 ± 4.2%
- activity relative to the reference (wild type) SULT1C1: reduced activity

B6: Asp200Val/ Thr239Ala: double variant SULT1C1 polypeptide with a valine at amino acid 200 and an alanine at amino acid 239 (protein)
chain: B1 chain with A60D, D200V, T239A
- Km: 1.82 ± 0.14 µM
- % WT activity: 49.3 ± 2.8%
- activity relative to the reference (wild type) SULT1C1: reduced activity

B7: Ser111Phe: SULT1C1 polypeptide having a phenylalanine at amino acid 111 in place of a serine (protein)
chain: B1 chain with A60D, S111F
- % WT activity: 0%
- activity relative to the reference (wild type) SULT1C1: reduced activity

B8: Ser255Ala: SULT1C1 polypeptide having an alanine at amino acid 255 in place of a serine (protein)
chain: B1 chain with A60D, S255A
- Km: 0.56 ± 0.06 µM
- % WT activity: 98.9 ± 5.9%
- activity relative to the reference (wild type) SULT1C1: comparable to the reference SULT1C1

B9: Phe193Leu: SULT1C1 polypeptide having a leucine residue at amino acid 193 in place of a phenylalanine (protein)
chain: B1 chain with A60D, F193L
- Km: 2.95 ± 0.27 µM
- % WT activity: 39.3 ± 1.4%
- activity relative to the reference (wild type) SULT1C1: reduced activity
